Columns and labels:
[1] = test system: MMP-2 cleavable peptide substrate KGPLGVRGC, PEG on the lysine, on biotin and NeutrAvidin nanoparticles (Example 1)
[2] = test system: MMP-2 substrate G-K(TAMRA)-G-P-L-G-V-R-G-C-CONH2 with 20 kDa PEG, on ligand (biotin) TSACs (Example 3)
[3] = test system: MMP-7 substrate G-K(TAMRA)-G-V-P-L-S-L-T-M-G-C-CONH2 with 20 kDa PEG, on receptor (NeutrAvidin) TSACs (Example 3)
[4] = test system: MMP-7-MMP-2 tandem substrate TAMRA-G-K-G-V-P-L-S-L-T-M-Ahx-G-P-L-G-V-R-G-C-CONH2 with 20 kDa PEG, on ligand (biotin) TSACs (Example 3)
[5] = test system: T1, TAMRA-(Ahx)SRVGEEEHVYSFPNKQKSAEC-CONH2 (unphosphorylated Abl substrate derived from paxillin) on nanoparticles (Y-Abl TSACs)
T1 sequence: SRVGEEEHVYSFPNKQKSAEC

Chain of recombinant catalytic domain of matrix metalloproteinase-2 (MMP-2; Biomol) (chain, as listed by the source): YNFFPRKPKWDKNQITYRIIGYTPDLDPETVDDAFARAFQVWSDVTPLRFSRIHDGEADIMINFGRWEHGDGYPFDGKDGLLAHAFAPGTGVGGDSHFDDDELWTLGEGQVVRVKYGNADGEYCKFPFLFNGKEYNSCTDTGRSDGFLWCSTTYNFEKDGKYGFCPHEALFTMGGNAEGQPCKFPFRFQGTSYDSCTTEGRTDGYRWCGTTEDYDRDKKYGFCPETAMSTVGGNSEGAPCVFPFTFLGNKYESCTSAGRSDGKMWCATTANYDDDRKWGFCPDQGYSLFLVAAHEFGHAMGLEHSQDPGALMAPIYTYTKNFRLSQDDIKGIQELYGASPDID

Substance	TSAC assembly (extinction at 600 nm, AFM) [1]	lowest MMP-2 concentration detected by T2 relaxation (MRI) [1]	TSAC assembly in DLS [2]	TSAC assembly in DLS [3]	hydrodynamic radius increase in DLS [4]	TSAC assembly in DLS (hydrodynamic radius) [5]	lowest kinase amount giving quantifiable T2 relaxation enhancement (MRI) [5]
recombinant catalytic domain of matrix metalloproteinase-2 (MMP-2; Biomol)	The TSACs with the scrambled peptide exhibit markedly decreased assembly compared to the specific peptide sequence	TSACs at a 10 pM concentration were sensitive to at least 170 ng/ml (9.4 U/ml) of MMP-2	Addition of 0.4 µg MMP-2 actuates TSAC assembly, while 0.4 µg MMP-7 or no enzyme is insufficient	addition of 0.4 µg MMP-7 induces assembly, while 0.4 µg MMP-2 cannot	Hydrodynamic radii increased more than 5-fold in the presence of either enzyme or both enzymes	–	–
Abl kinase (New England Biolabs)	–	–	–	–	–	Abl kinase rapidly directed assembly in solutions containing Y-Abl TSACs with SH2 TSACs	as little as 11 fentomoles of added kinase (110 pM kinase concentrations=0.05 U/µl

Source: patent US20090246142
